Measured values as given in patent US20170174769A1 (Regeneron, published 2017).
Values joined by “and” are separate entries in the source; they are usually repeats but may differ in a detail not shown here. Identical values can stand only once. Blank lines part the entries; values can stand above or below the binder they belong to.

Experiments:
[1] = target: T1, extracellular domain of human KLB expressed with C-terminal HA and hexahistidine tags (human, UniProt Q86Z14 1-996); test: SPR, mAb captured, 25 C
T1 construct: also called hKLB-HA-6His; hKLB-HA-6his
T1 sequence: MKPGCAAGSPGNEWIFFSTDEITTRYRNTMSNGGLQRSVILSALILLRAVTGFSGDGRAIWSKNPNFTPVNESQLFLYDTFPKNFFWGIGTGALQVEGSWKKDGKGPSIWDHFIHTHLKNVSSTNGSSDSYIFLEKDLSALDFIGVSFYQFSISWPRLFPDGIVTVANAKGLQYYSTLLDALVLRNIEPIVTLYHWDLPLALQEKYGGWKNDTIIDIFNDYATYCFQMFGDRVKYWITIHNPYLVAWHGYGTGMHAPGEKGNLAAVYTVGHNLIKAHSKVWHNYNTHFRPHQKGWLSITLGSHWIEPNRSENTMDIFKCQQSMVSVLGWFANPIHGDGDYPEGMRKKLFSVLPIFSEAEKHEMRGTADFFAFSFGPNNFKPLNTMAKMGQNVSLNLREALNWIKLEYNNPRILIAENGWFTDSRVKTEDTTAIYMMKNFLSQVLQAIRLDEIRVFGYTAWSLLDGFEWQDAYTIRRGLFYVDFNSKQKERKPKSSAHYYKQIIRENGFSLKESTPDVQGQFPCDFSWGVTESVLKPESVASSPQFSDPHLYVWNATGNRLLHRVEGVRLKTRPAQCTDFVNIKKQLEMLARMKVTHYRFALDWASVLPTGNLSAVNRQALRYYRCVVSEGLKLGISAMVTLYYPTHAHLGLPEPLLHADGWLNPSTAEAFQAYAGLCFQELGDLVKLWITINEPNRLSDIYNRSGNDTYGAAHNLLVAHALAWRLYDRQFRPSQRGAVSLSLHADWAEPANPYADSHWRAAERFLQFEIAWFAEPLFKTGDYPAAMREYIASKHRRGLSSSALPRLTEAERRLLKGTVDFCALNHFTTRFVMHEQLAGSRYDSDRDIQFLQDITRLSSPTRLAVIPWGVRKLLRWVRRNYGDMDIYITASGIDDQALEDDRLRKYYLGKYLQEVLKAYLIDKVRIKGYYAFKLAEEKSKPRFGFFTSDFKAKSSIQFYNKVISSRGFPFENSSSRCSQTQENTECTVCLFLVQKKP
Procedure: (§1) Equilibrium dissociation constants (KD values) for human KLB or human FGFR1c binding to purified anti-KLB/FGFR1c monoclonal antibodies were determined using a real-time surface plasmon resonance biosensor using a Biacore T-200 or 4000 instrument. The Biacore sensor surface was derivatized by amine coupling with either a polyclonal rabbit anti-mouse antibody (GE, # BR-1008-38) or with a monoclonal mouse anti-human Fc antibody (GE, # BR-1008-39) to capture anti-KLB/FGFR1c monoclonal antibodies expressed with either a mouse Fc or a human Fc, respectively. All Biacore binding studies were performed in a buffer composed of 0.01M HEPES pH 7.4, 0.15M NaCl, 3mM EDTA, 0.05% v/v Surfactant P20 (HBST running buffer). […] Association of hKLB-HA-6His or hFGFR1c-V5-6His to the captured monoclonal antibody was monitored for 3.5 to 4 minutes and the dissociation of hKLB-HA-6His or hFGFR1c-V5-6His in HBST running buffer was monitored for 8-12 minutes. All the binding kinetics experiments were performed at 25° C. or 37° C. Kinetic association (kₐ) and dissociation (kd) rate constants were determined by fitting the real-time sensorgrams to a 1:1 binding model using Scrubber 2.0c curve fitting software. Binding dissociation equilibrium constants (KD) and dissociative half-lives (t½) were calculated from the kinetic rate constants as: […]

[2] = target: T2, extracellular domain of human FGFR1c expressed with C-terminal V5 and hexahistidine tags (human, UniProt P11362 22-376); test: SPR, mAb captured, 25 C
T2 construct: also called hFGFR1c-V5-6His
T2 sequence: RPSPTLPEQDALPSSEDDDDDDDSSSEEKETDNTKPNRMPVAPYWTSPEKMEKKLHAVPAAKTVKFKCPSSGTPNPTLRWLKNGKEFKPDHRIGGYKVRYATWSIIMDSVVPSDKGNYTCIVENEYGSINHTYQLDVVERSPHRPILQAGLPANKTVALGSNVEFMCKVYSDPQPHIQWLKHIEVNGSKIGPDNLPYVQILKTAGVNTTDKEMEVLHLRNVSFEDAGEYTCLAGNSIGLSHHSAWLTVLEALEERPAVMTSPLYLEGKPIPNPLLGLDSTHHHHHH
Procedure: as §1

[3] = target: human KLB and human FGFR1c co-expressed on HEK293/hKLB/hFGFR1c/SRE-luc cells (human, UniProt Q86Z14 1-1044; P11362 22-822); test: cell-based or functional assay
[4] = target: cell-surface human FGFR1c (amino acids 1-731 of NP_075594) with cell-surface human KLB on … (human, UniProt P11362 22-822); test: cell-based or functional assay
[5] = target: T1, extracellular domain of human KLB …; test: SPR, mAb captured, 37 C
Procedure: as §1

[6] = target: T2, extracellular domain of human FGFR1c …; test: SPR, mAb captured, 37 C
Procedure: as §1

[7] = target: T3, full-length human FGFR1c on HEK293/hFGFR1c/SRE-luc cells (human, UniProt P11362 22-822); test: FACS on stable HEK293 cells
T3 construct: amino acids 1-733 of NP_075593
Procedure: To determine binding specificity of the monoclonal anti-KLB/FGFR1c antibodies, the antibodies were tested in a fluorescence-activated cell sorting (FACS) binding assay to cell lines expressing human FGFR1c, human KLB, and both human FGFR1c and human KLB. HEK293 cell lines were generated that stably express full-length human FGFR1c (hFGFR1c; SEQ ID NO:433) or full-length human KLB (hKLB; SEQ ID NO:434) or both human FGFR1c and human KLB, along with a luciferase reporter [SRE (serum response element)-luciferase, SA Bioscience, #CLS-010L]. The resulting cell lines, referred to as HEK293/hFGFR1c/SRE-luc, HEK293/hKLB/SRE-luc, and HEK293/hKLB/hFGFR1c/SRE-luc, respectively, were maintained in DMEM supplemented with 10% FBS, NEAA, penicillin/streptomycin, 1 μg/mL puromycin and […] hygromycin B, 1 μg/mL puromycin and 500 μg/mL G418, or all three antibiotics.
For the FACS analysis, HEK293 parental, HEK293/hFGFR1c/SRE-luc, HEK293/hKLB/SRE-luc, and HEK293/hKLB/hFGFR1c/SRE-luc cells were dissociated and plated onto 96-well v-bottom plates at 5 x 10⁵ cells/well in PBS containing 1% FBS. […] Cells were filtered and subsequently analyzed on a Hypercyte Flow Cytometer (Intellicyt Corp.). Unstained and secondary antibody alone controls were also tested for binding to all cell lines. The results were analyzed using FlowJo version 9.52 software and geometric mean (Geom. Mean) of fluorescence for viable cells was determined. Geom. mean of fluorescence for each antibody was then normalized to Geom. mean of unstained cells to obtain relative binding of antibody (binding ratios) per each cell type.

[8] = target: M. fascicularis KLB and human FGFR1c co-expressed on HEK293/MfKLB/hFGFR1c/SRE-Luc cells (M. fascicularis; human, UniProt A0A2K5WB58 1-1044); test: cell-based or functional assay
[9] = target: mouse KLB and mouse FGFR1c co-expressed on HEK293/mKLB/mFGFR1c/SRE-Luc cells (mouse); test: cell-based or functional assay

M. fascicularis KLB and human FGFR1c co-expressed on HEK293/MfKLB/hFGFR1c/SRE-Luc cells, sequence (chain, as listed by the source, chain 1 of 2): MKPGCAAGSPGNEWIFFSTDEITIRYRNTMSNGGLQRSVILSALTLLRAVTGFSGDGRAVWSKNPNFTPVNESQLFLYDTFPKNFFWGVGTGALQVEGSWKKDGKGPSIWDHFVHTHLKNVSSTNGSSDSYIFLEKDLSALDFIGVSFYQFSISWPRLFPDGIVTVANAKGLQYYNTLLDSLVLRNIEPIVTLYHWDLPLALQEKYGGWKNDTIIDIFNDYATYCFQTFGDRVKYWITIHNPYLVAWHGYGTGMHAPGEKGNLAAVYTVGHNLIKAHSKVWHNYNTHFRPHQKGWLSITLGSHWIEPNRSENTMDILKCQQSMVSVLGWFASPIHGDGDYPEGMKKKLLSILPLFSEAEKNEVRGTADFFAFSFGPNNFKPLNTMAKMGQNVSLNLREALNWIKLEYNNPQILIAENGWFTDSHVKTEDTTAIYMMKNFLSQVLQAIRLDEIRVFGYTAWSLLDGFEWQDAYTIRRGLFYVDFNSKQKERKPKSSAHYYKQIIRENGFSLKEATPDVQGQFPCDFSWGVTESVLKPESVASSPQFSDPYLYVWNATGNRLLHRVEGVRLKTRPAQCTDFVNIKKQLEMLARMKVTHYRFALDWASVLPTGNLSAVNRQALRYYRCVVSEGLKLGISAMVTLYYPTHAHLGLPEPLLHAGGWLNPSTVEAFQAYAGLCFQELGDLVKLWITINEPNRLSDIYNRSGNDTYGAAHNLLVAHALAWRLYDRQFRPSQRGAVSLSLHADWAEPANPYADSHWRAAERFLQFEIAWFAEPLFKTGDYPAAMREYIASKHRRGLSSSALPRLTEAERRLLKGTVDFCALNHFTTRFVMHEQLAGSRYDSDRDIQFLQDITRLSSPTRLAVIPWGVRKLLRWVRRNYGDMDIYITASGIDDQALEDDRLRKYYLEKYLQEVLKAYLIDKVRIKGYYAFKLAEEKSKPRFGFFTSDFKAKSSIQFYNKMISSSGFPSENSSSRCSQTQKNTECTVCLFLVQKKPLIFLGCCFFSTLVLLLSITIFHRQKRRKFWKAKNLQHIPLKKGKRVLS
M. fascicularis KLB and human FGFR1c co-expressed on HEK293/MfKLB/hFGFR1c/SRE-Luc cells, sequence (chain, as listed by the source, chain 2 of 2): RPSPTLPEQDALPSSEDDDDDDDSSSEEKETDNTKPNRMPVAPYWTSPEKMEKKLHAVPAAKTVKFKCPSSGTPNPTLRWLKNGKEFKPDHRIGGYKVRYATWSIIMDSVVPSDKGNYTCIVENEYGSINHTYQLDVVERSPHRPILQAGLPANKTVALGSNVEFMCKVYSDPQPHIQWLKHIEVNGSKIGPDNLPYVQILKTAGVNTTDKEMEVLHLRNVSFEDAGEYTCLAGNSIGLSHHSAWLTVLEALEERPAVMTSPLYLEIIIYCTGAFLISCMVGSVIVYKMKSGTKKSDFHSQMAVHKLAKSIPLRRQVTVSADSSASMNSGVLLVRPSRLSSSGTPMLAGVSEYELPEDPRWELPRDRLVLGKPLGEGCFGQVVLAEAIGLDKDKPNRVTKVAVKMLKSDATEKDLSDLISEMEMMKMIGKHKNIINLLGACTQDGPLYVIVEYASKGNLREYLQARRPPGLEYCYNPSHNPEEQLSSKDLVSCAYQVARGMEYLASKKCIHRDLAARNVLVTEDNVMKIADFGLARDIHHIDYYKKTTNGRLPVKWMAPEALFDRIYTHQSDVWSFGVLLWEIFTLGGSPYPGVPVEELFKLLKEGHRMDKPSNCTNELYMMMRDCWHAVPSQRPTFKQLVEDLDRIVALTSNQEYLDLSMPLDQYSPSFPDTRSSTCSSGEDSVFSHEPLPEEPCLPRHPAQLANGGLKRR
cell-surface human FGFR1c (amino acids 1-731 of NP_075594) with cell-surface human KLB on …, sequence (P11362 22-822): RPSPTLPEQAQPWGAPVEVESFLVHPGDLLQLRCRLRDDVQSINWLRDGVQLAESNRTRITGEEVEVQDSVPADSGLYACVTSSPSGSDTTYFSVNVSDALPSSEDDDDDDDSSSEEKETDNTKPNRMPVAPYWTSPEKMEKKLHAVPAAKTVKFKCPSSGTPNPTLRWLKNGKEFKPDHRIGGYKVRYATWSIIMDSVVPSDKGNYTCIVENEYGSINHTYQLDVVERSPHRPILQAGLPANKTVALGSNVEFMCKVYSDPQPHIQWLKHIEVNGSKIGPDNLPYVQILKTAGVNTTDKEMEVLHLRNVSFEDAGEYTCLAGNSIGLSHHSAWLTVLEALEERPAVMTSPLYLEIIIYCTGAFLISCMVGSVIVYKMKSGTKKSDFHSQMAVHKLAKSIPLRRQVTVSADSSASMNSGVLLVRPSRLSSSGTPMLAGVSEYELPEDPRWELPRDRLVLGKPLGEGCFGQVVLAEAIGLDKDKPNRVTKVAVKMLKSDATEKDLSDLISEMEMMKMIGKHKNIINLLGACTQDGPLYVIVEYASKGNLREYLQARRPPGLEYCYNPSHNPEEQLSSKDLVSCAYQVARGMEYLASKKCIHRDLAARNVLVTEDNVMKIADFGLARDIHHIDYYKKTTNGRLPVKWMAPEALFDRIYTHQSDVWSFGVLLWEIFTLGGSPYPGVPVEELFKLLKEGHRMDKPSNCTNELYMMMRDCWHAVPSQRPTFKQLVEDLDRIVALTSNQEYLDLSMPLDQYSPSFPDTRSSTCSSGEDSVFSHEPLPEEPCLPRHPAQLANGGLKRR
T3 sequence (P11362 other isoform, or with tags, fused parts or gaps limits assumed): as the sequence (chain, as listed by the source, chain 2 of 2) above

20 nM hKLB-HA-6His Bind (RU) [1]: 27.3 RU
Kd [1]: 0.318 nM
koff [1]: 3.94e-05 s⁻¹
kon [1]: 124000 M⁻¹ s⁻¹
t1/2 [1]: 4.89 h
180 nM hFGFR1c-V5-6His Bind (RU) [2]: 0.9 RU
binding result [2]: no binding (tested: 180 nM)
EC50, SRE-luc activation without ligand [3]: 0.28 nM
IC50, inhibition of 1 nM 6His-hFGF21 [3]: 0.39 nM
Maximum Activation (%) [3]: 0.5%
Maximum Inhibition (%) [3]: 90%
% Activation [4]: 1.6%
EC50, SRE-luc activation [4]: > 5 nM
20 nM hKLB-HA-6His Bind (RU) [5]: 86.7 RU
Kd [5]: 1.3 nM
koff [5]: 0.000178 s⁻¹
kon [5]: 137000 M⁻¹ s⁻¹
t1/2 [5]: 1.08 h
180 nM hFGFR1c-V5-6His Bind (RU) [6]: 0.4 RU
B1: scFv8092N-IgG4mutFc x scFv8900P-IgG4mutFc* Heterodimer (bispecific antibody)
chain 1: not shown
chain 2: QVQLVESGGGVVQPGRSLRLSCVASGFTFSSYGMHWVRQAPGKGLEWVAVISFDGSNKYYADSVKGRFTISRDNSKNTLYLQMNSLRPADTAVYYCAKDRSNYYYFGMDVWGQGTTVTVSSGGGGSGGGGSGGGGSDIVMTQTPLSLPVTPGEPASISCRSSQSLLDSDDGNTYLDWYLQKPGQSPQLLIYTLSYRASGVPDRFSGSGSGTDFTLKISRVEAEDVGVYYCMQRIEFPLTFGGGTKVEIKGGGGSGGGGSGGGGSESKYGPPCPPCPAPEFLGGPSVFLFPPKPKDTLMISRTPEVTCVVVDVSQEDPEVQFNWYVDGVEVHNAKTKPREEQFNSTYRVVSVLTVLHQDWLNGKEYKCKVSNKGLPSSIEKTISKAKGQPREPQVYTLPPSQEEMTKNQVSLTCLVKGFYPSDIAVEWESNGQPENNYKTTPPVLDSDGSFFLYSRLTVDKSRWQEGNVFSCSVMHEALHNRFTQKSLSLSPGK
notes: also called 8900P ScFv-Fc*/8092N ScFv-Fc; H4H8900P ScFv-Fc*/H4H8092N ScFv-Fc

180 nM hFGFR1c-V5-6His Bind (RU) [2]: 1.9 RU
binding ratio to unstained cells [7]: 9 fold
180 nM hFGFR1c-V5-6His Bind (RU) [6]: 1.4 RU
IC50, inhibition of 10 nM mfFGF21 [8]: 0.099 nM
Maximum Inhibition (%) of 10 nM mfFGF21 [8]: 16%
B2: H2bM8833N (antibody, V domains shown)
VH: QVQLVESGGGVVQPGRSLRLSCAASGFTFSRYGIHWVRQAPGKGLEWVAVIWYDGSNKYYADSLKGRFTISRDNSKNTLYLQMNSLRAEDTAVYYCARDQGNYIDYWGQGTLVTVSS
VL: AIQMTQSPSSLSASVGDRVTITCRTSQGIRNDLGWYQQKPGKVPKLLIYAASSLQSGVPSRFSGSGSGTDFTLTISSLQPEDFATYYCLQDYNYPFTFGPGTKVDIK
notes: mouse IgG2 Fc (H2bM prefix)

EC50, SRE-luc activation by ligand [9]: 0.33 nM and 0.37 nM
B3: mouse FGF21 (ligand, UniProt Q9JJN1 29-210, looked up)
chain: AYPIPDSSPLLQFGGQVRQRYLYTDDDQDTEAHLEIREDGTVVGAAHRSPESLLELKALKPGVIQILGVKASRFLCQQPDGALYGSPHFDPEACSFRELLLEDGYNVYQSEAHGLPLRLPQKDSPNQDATSWGPVRFLPMPGLLHEPQDQAGFLPPEPPDVGSSDPLSMVEPLQGRSPSYAS

180 nM hFGFR1c-V5-6His Bind (RU) [2]: -0.7 RU
180 nM hFGFR1c-V5-6His Bind (RU) [6]: -1.2 RU
B4: H2bM8096N (antibody, V domains shown)
VH: QVQLVESGGGVVQPGRSLRLSCAASGFTFSSYGLHWVRQAPGKGLEWVAVIWHDGSHKYYADSVKGRFTISRDNSKNTVYLQMNSLRAEDTAVYYCARDGIPVAEDYYLYGMDVWGQGTTVTVSS
VL: EIVLTQSPGTLSLSPGERATLSCRASQSVDSSYLAWYHQKPGQAPRLLIYGASSRATGIPDRFSGSGSGTDFTLTISRLEPEDFAVYYCQQYGSSRTFGQGTKVEIK
notes: mouse IgG2 Fc (H2bM prefix)
